Changes are numbered by the printed parent chain.
Assays:
[1] = biological target: T1, cynomolgus monkey ADAM9 (cynoADAM9) on cells (cynomolgus monkey, UniProt Q13443 206-819 (human entry)); assay: FACS, 300-19 cells expressing cynomolgus ADAM9
T1 construct: also called Cho-K/cynoADAM9 clone 2; Cho-K/cynoADAM9 clone #16
T1 chain: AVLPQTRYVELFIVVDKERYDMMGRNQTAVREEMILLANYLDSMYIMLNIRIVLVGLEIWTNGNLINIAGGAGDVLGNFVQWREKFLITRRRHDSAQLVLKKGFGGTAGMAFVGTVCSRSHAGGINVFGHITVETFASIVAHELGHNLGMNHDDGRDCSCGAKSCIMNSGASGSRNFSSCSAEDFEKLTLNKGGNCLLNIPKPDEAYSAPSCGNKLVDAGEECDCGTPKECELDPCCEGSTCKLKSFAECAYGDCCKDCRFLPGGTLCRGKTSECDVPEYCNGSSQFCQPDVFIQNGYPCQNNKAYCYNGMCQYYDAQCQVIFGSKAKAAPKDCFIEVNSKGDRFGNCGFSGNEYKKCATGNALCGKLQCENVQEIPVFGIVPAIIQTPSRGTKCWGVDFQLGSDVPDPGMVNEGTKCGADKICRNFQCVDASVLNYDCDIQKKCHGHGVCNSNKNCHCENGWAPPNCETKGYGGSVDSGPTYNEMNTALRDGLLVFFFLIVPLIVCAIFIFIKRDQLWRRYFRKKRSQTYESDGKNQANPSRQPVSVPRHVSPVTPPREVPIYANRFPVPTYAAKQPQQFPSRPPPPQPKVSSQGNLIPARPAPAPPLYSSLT
Method: (§1) To evaluate the consequence of conjugation on antigen binding, the relative binding affinity of each anti-ADAM9 immunoconjugate and its respective unconjugated antibody to ADAM9 was determined by FACS analysis on 300-19 cells ectopically-expressing either human ADAM9 or cynomolgus ADAM9. Briefly, the ADAM9-expressing 300-19 cells were incubated with dilution series of anti-ADAM9 antibodies or immunoconjugates for 30 min @ 4° C. in FACS buffer (PBS, 0.1% BSA, 0.01% NaN₃), Samples were then washed and incubated with fluorescently-labeled secondary antibody for 30 minutes at 4° C. The normalized mean of fluorescence intensity at each concentration was plotted and the EC50 of binding was calculated using a nonlinear regression analysis (GraphPad Prims 4.0).

[2] = biological target: T2, human ADAM9 (huADAM9) on cells (human, UniProt Q13443 206-819); assay: FACS, 300-19 cells expressing human ADAM9
T2 construct: The pro-domain is said to be cleaved (Arg-205/Ala-206) in the mature protein; also called Cho-K/huADAM9; Cho-K/hu ADAM9.2
T2 sequence: T1 chain with A69V, H130Q, D421G, I441V, R521S, V546G, P569A
Method: as §1

[3] = biological target: T1, cynomolgus monkey ADAM9 (cynoADAM9) on …; assay: FACS, EC50 on 300-19 cynoADAM9 cells over EC50 on 300-19 huADAM9 cells
Method: as §1

[4] = biological target: T2, human ADAM9 (huADAM9) on cells; assay: cell-based or functional assay
[5] = biological target: T3, His-tagged soluble human ADAM9 (shADAM9-His) (human, UniProt Q13443 206-697); assay: SPR (BIACORE), antibody captured, huADAM9-His in flow
T3 construct: Contains an extracellular portion of human ADAM9; also called huADAM9-His; His peptide-tagged soluble huADAM9
T3 sequence: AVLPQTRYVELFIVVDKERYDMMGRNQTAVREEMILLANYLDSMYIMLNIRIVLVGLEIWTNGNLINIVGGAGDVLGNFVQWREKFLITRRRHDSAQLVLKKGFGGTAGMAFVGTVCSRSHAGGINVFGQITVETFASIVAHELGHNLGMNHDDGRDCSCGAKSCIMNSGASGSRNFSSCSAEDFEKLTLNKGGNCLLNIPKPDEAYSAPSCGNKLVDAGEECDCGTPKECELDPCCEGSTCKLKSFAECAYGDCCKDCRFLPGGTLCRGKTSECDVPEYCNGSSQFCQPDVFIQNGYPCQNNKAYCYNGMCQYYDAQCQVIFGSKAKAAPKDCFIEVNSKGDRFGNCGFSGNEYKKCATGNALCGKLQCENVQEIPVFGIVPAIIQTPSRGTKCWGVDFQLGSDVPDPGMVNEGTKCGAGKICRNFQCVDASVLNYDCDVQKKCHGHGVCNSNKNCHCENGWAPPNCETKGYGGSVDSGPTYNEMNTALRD
Method: The kinetics of binding were determined via BIACORE® analysis binding (normalized 1:1 Langmuir binding model).

B1: chMAB-A-sSPDB-DM4 (antibody, V domains shown)
VH: QVQLQQPGAELVKPGASVKLSCKASGYTFTSYWMHWVKQRPGQGLEWIGEIIPINGHTNYNEKFKSKATLTLDKSSSTAYMQLSSLASEDSAVYYCARGGYYYYGSRDYFDYWGQGTTLTVSS
VL: DIVLTQSPASLAVSLGQRATISCKASQSVDYDGDSYMNWYQQIPGQPPKLLIYAASDLESGIPARFSGSGSGTDFTLNIHPVEEEDAATYYCQQSHEDPFTFGGGTKLEIK
modifications: lysine-linked DM4, sites not given; DM4 linked through sulfo-SPDB to lysine residues of the antibody, sites not given; average 3.4 mol DM4/mol antibody
**Q.** What does the source list for B1?
**A.** EC50 [1]: 275 nM; EC50 [2]: 0.95 nM; cyno/human (ratio of EC50) [3]: 290

B2: chMAB-A-DGN549 (antibody, V domains shown)
VH: B1 VH
VL: B1 VL
modifications: lysine-linked DGN549, sites not given; DGN549-L (compound D2) linked to lysine residues of the antibody, sites not given; average 2.7 mol DGN549/mol antibody
**Q.** B2 was tested. Which EC50 [1] did it give?
**A.** 153 nM

**Q.** And the EC50 [2]?
**A.** 1.24 nM

**Q.** And the “cyno/human (ratio of EC50)” value [3]?
**A.** 123

B3: hMAB-A(2I.2)-DGN549 (antibody, human IgG1, kappa)
heavy: not shown
light: DIVMTQSPDSLAVSLGERATISCKASQSVDYSGDSYMNWYQQKPGQPPKLLIYAASDLESGIPARFSGSGSGTDFTLTISSLEPEDFATYYCQQSHEDPFTFGQGTKLEIKRTVAAPSVFIFPPSDEQLKSGTASVVCLLNNFYPREAKVQWKVDNALQSGNSQESVTEQDSKDSTYSLSSTLTLSKADYEKHKVYACEVTHQGLSSPVTKSFNRGEC
modifications: lysine-linked DGN549, sites not given; DGN549-L (compound D2) linked to lysine residues of the antibody, sites not given; average 2.8 mol DGN549/mol antibody
**Q.** How did the EC50 [1] turn out when B3 was run?
**A.** 6.6 nM

**Q.** And the EC50 [2]?
**A.** 2.25 nM

**Q.** And the “cyno/human (ratio of EC50)” value [3]?
**A.** 3

B4: hMAB-A(2.2)-DGN549 (antibody, human IgG1, kappa, V domains shown)
VH: EVQLVESGGGLVKPGGSLRLSCAASGFTFSSYWMHWVRQAPGKGLEWVGEIIPIFGHTNYNEKFKSRFTISLDNSKNTLYLQMGSLRAEDTAVYYCARGGYYYYGSRDYFDYWGQGTTVTVSS
VL: DIVMTQSPDSLAVSLGERATISCKASQSVDYSGDSYMNWYQQKPGQPPKLLIYAASDLESGIPARFSGSGSGTDFTLTISSLEPEDFATYYCQQSHEDPFTFGQGTKLEIKR
modifications: lysine-linked DGN549, sites not given; DGN549-L (compound D2) linked to lysine residues of the antibody, sites not given; average 2.7 mol DGN549/mol antibody
**Q.** Which results are given for B4?
**A.** EC50 [1]: 22.3 nM; Fold-specificity (IC50 control ADC/IC50 anti-ADAM9 ADC), A498 [4]: > 1000 fold; Fold-specificity (IC50 control ADC/IC50 anti-ADAM9 ADC), DLD-1 [4]: > 1000 fold; Fold-specificity (IC50 control ADC/IC50 anti-ADAM9 ADC), DU145 [4]: > 1000 fold; Fold-specificity (IC50 control ADC/IC50 anti-ADAM9 ADC), HPAF2 [4]: > 1000 fold; Fold-specificity (IC50 control ADC/IC50 anti-ADAM9 ADC), HS578T [4]: > 1000 fold; Fold-specificity (IC50 control ADC/IC50 anti-ADAM9 ADC), IGROV1 [4]: > 1000 fold; Fold-specificity (IC50 control ADC/IC50 anti-ADAM9 ADC), KATO III [4]: > 1000 fold; Fold-specificity (IC50 control ADC/IC50 anti-ADAM9 ADC), NCI-H1703 [4]: > 1000 fold; In Vitro Cytotoxicity (IC50 nM), A498 [4]: 0.001 nM; In Vitro Cytotoxicity (IC50 nM), DLD-1 [4]: 0.01 nM; In Vitro Cytotoxicity (IC50 nM), DU145 [4]: 0.002 nM; In Vitro Cytotoxicity (IC50 nM), HPAF2 [4]: 0.043 nM; In Vitro Cytotoxicity (IC50 nM), HS578T [4]: 0.009 nM; In Vitro Cytotoxicity (IC50 nM), IGROV1 [4]: 0.001 nM; In Vitro Cytotoxicity (IC50 nM), KATO III [4]: 0.031 nM; In Vitro Cytotoxicity (IC50 nM), NCI-H1703 [4]: 0.002 nM; EC50 [2]: 1.55 nM; cyno/human (ratio of EC50) [3]: 14

B5: hMAB-A(2.2)-sSPDB-DM4 (antibody, human IgG1, kappa, V domains shown)
VH: B4 VH
VL: B4 VL
modifications: lysine-linked DM4, sites not given; DM4 linked through sulfo-SPDB to lysine residues of the antibody, sites not given; average 3.2 mol DM4/mol antibody
notes: also called huMAB-A(2.2)-sSPDB-DM4
**Q.** Which EC50 [1] does the source give for B5 here?
**A.** 13.3 nM

**Q.** And the “Fold-specificity (IC50 control ADC/IC50 anti-ADAM9 ADC), A498” value [4]?
**A.** 27 fold

**Q.** What about the “Fold-specificity (IC50 control ADC/IC50 anti-ADAM9 ADC), DLD-1” value [4] of the same binder?
**A.** 9 fold

**Q.** And the “Fold-specificity (IC50 control ADC/IC50 anti-ADAM9 ADC), DU145” value [4]?
**A.** 25 fold

**Q.** And the “Fold-specificity (IC50 control ADC/IC50 anti-ADAM9 ADC), HPAF2” value [4]?
**A.** 9 fold

**Q.** What about the “Fold-specificity (IC50 control ADC/IC50 anti-ADAM9 ADC), HS578T” value [4] of the same binder?
**A.** 16 fold

**Q.** And the “Fold-specificity (IC50 control ADC/IC50 anti-ADAM9 ADC), IGROV1” value [4]?
**A.** 3 fold

**Q.** And the “Fold-specificity (IC50 control ADC/IC50 anti-ADAM9 ADC), KATO III” value [4]?
**A.** 5 fold

**Q.** And the “Fold-specificity (IC50 control ADC/IC50 anti-ADAM9 ADC), NCI-H1703” value [4]?
**A.** 152 fold

**Q.** What about the “In Vitro Cytotoxicity (IC50 nM), A498” value [4] of the same binder?
**A.** 0.119 nM

**Q.** And the “In Vitro Cytotoxicity (IC50 nM), DLD-1” value [4]?
**A.** 2.73 nM

**Q.** And the “In Vitro Cytotoxicity (IC50 nM), DU145” value [4]?
**A.** 0.57 nM

**Q.** And the “In Vitro Cytotoxicity (IC50 nM), HPAF2” value [4]?
**A.** 0.622 nM

**Q.** And the “In Vitro Cytotoxicity (IC50 nM), HS578T” value [4]?
**A.** 0.119 nM

**Q.** What about the “In Vitro Cytotoxicity (IC50 nM), IGROV1” value [4] of the same binder?
**A.** 4.08 nM

**Q.** And the “In Vitro Cytotoxicity (IC50 nM), KATO III” value [4]?
**A.** 1.15 nM

**Q.** And the “In Vitro Cytotoxicity (IC50 nM), NCI-H1703” value [4]?
**A.** 0.024 nM

**Q.** And the EC50 [2]?
**A.** 1.11 nM

**Q.** And the “cyno/human (ratio of EC50)” value [3]?
**A.** 12

B6: hMAB-A (2B.2) (antibody, V domains shown)
VH: B4 VH with G105I, S106G, R107K, D108G, Y109V, F110L
VL: DIVMTQSPDSLAVSLGERATISCKASQSVDYSGDSYMNWYQQKPGQPPKLLIYAASDLESGIPARFSGSGSGTDFTLTISSLEPEDFATYYCQQSHEDPFTFGQGTKLEIK
notes: also called MAB-A VH(2B); MAB-A VH(2B.2)
**Q.** Which Kd [5] does the source give for B6 here?
**A.** 0.6 nM

**Q.** And the koff [5]?
**A.** 0.00039 s⁻¹

**Q.** What about the kon [5] of the same binder?
**A.** 610000 M⁻¹ s⁻¹

B7: hMAB-A(2C.2)-DGN549 (antibody, human IgG1, kappa, V domains shown)
VH: B4 VH with G105P, S106R, R107F, D108G, Y109W, F110L
VL: B4 VL
modifications: lysine-linked DGN549, sites not given; DGN549-L (compound D2) linked to lysine residues of the antibody, sites not given; average 2.8 mol DGN549/mol antibody
**Q.** What does the source list for B7?
**A.** EC50 [1]: 5.6 nM; EC50 [2]: 1.99 nM; cyno/human (ratio of EC50) [3]: 3

B8: hMAB-A (2D.2) (antibody, V domains shown)
VH: B4 VH with G105T, S106G, R107K, D108G, Y109V, F110L
VL: B6 VL
notes: also called MAB-A VH(2D); MAB-A VH(2D.2)
**Q.** Which Kd [5] does the source give for B8 here?
**A.** 0.8 nM

**Q.** And the koff [5]?
**A.** 0.00058 s⁻¹

**Q.** And the kon [5]?
**A.** 690000 M⁻¹ s⁻¹

B9: hMAB-A(2C.2)-sSPDB-DM4 (antibody, human IgG1, kappa, V domains shown)
VH: B4 VH with G105P, S106R, R107F, D108G, Y109W, F110L
VL: B4 VL
modifications: lysine-linked DM4, sites not given; DM4 linked through sulfo-SPDB to lysine residues of the antibody, sites not given; average 3.2 mol DM4/mol antibody
**Q.** How did the EC50 [1] turn out when B9 was run?
**A.** 4.4 nM

**Q.** And the EC50 [2]?
**A.** 1.5 nM

**Q.** And the “cyno/human (ratio of EC50)” value [3]?
**A.** 3

— patent publication US20210388102A1 (IMMUNOGEN, published 2021)
